Experimental data taken from US20210155955A1, “THERAPEUTIC CONSTRUCTS FOR TREATING CANCER” (CANCER TARGETING SYSTEMS, INC., priority 2018, published 2021).

Tested on: B16F10-Red-FLuc mouse melanoma cells
Assay: B16F10-Red-FLuc experimental metastasis to the lung, N/P=4 and N/P=6 versus recombinant mIL-12 (Example 9)
Type: in vivo, C57BL/6 mice
Method: The anti-tumor effect of nanoparticles containing PEG-mIL12 and expressing mIL-12 was compared to recombinant mIL-12 protein administered subcutaneously. The experimental design was as Example 8 but nanoparticles were prepared at N/P=4 and N/P=6 ratios. Nanoparticles were dosed as before for N/P=6, however, for the N/P=4 formulation the dose was maintained at 2 mg/kg in 10 mL/kg at day 8. For dosing of the recombinant protein, 10 μg of recombinant mIL-12 (PeproTech, Rocky Hill, N.J., USA) were reconstituted in PBS to make a 100 μg/mL stock solution. Dosing of the animals was at 4 μg/kg for the initial dose (Day 5) followed by four subsequent doses 12 μg/kg at the same intervals as the nanoparticles (Day 8, 11, 14 and 17).

B1: recombinant mIL-12: recombinant mIL-12 protein (PeproTech) administered subcutaneously (protein, UniProt P43431 23-215; P43432 23-335, looked up)
Interleukin-12 subunit alpha: RVIPVSGPARCLSQSRNLLKTTDDMVKTAREKLKHYSCTAEDIDHEDITRDQTSTLKTCLPLELHKNESCLATRETSSTTRGSCLPPQKTSLMMTLCLGSIYEDLKMYQTEFQAINAALQNHNHQQIILDKGMLVAIDELMQSLNHNGETLRQKPPVGEADPYRVKMKLCILLHAFSTRVVTINRVMGYLSSA
Interleukin-12 subunit beta: MWELEKDVYVVEVDWTPDAPGETVNLTCDTPEEDDITWTSDQRHGVIGSGKTLTITVKEFLDAGQYTCHKGGETLSHSHLLLHKKENGIWSTEILKNFKNKTFLKCEAPNYSGRFTCSWLVQRNMDLKFNIKSSSSSPDSRAVTCGMASLSAEKVTLDQRDYEKYSVSCQEDVTCPTAEETLPIELALEARQQNKYENYSTSFFIRDIIKPDPPKNLQMKPLKNSQVEVSWEYPDSWSTPHSYFSLKFFVRIQRKKEKMKETEEGCNQKGAFLVEKTSTEVQCKGGNVCVQAQDRYYNSSCSKWACVPCRVRS
B1 was tested, and the “Median survival time compared with Trehalose control” value (Log-rank test: p≤0.01 for formulations of PEG-mIL12, p≤0.05 for recombinant mIL-12, Trehalose 22.0 days) was “significantly longer”, the “tumor growth by luminescence readings compared with 9.5% Trehalose control” value (Study Day 19) was “significant (p≤0.05) inhibition of tumor growth” and the Median survival time (nanoparticles i.v. 2 mg/kg Days 5, 8, 11, 14, 17 (N/P=6: 1 mg/kg Day 8), recombinant mIL-12 subcutaneously 4 μg/kg Day 5 then 12 μg/kg) was 25.0 days.
